From patent US12491259B2, “Anti-variable MUC1* antibodies and uses thereof” (Minerva Biotechnologies Corporation, priority 2022, dated 2025)

Tested on: T47D-MUC1* breast cancer cells
Experiment: ADC cell killing, photographs and PrestoBlue live/dead cell assay
Type: cell-based, human
Settings: 500 nM and 6.2 nM, 120 hours
Description: T47D-MUC1* is a cell line in which T47D cells have been transduced to express even more MUC1*. MNC2-ADC was incubated with T47D-WT cells (FIG. 10A-10G) or T47D-MUC1* cells (FIG. 11A-11G). […] These experiments are shown as just one example. […] The toxin that is attached to the anti-MUC1* antibody may be one of several known to those skilled in the art. Similarly, MNC2 may be human or humanized.
In this next experiment, a valine-citrulline p-aminobenzylcarbamate (VC-PAB) linker was used to connect the deglycosylated antibody and the toxin. The linker is separately coupled to the MMAE at one end, then the other end is reacted with maleimide, then coupled to the antibody after reduction through alkylation. MMAE inhibits cell division by blocking the polymerization of tubulin. […] The viability of the 72 hour co-cultures was measured using a cell death indicator called PrestoBlue™ (Thermo Fisher Scientific, Waltham, MA) (FIG. 17). […]
As another example of how antibodies of the invention can be incorporated into ADCs, antibody drug conjugates, for the treatment of MUC1* positive cancers, a toxin was attached to another anti-MUC1* antibody, 20A10. […] The viability of the 72 hour co-cultures was measured using a cell death indicator called PrestoBlue™ (Thermo Fisher Scientific, Waltham, MA) (FIG. 19). […]

B1: MNC2-Deruxtecan (conjugate)
VH: EVQLVESGGGLVKPGGSLRLSCAASGFTFSGYAMSWVRQAPGKGLEWVSTISSGGTYIYYPDSVKGRFTISRDNAKNSLYLQMNSLRAEDTAVYYCARLGGDNYYEYFDVWGKGTTVTVSS
VL: DIVLTQSPASLAVSPGQRATITCRASKSVSTSGYSYMHWYQQKPGQPPKLLIYLASNLESGVPARFSGSGSGTDFTLTINPVEANDTANYYCQHSRELPFTFGGGTKVEIKRT
- killing effect in photographs: significant decrease in cell number
